Three molecules from patent publication US20100209956A1 can be followed below.

Substitutions are numbered along the chain they refer to. Names may count otherwise.

The target of this assay is soluble form of hepsin encompassing the entire extracellular domain (Arg45-Leu417) and a C-terminal His8 tag (human) (UniProt P05981). The assay can be described thus: cell-based or functional assay.
soluble form of hepsin encompassing the entire extracellular domain (Arg45-Leu417) and a C-terminal His8 tag (human), sequence (P05981 45-162 limits assumed, chain 1 of 2): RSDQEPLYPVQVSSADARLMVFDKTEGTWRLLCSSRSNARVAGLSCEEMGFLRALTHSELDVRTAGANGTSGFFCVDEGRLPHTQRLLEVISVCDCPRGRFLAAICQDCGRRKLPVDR
soluble form of hepsin encompassing the entire extracellular domain (Arg45-Leu417) and a C-terminal His8 tag (human), sequence (P05981 other isoform, or with tags, fused parts or gaps limits assumed, chain 2 of 2): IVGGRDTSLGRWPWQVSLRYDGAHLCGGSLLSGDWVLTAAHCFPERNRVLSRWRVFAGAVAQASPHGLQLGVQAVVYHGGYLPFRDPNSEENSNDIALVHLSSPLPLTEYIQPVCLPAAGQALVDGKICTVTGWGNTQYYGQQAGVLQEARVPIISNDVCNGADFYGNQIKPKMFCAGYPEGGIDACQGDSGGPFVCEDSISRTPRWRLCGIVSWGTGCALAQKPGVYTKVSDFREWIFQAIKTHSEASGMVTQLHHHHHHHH

B1: soluble form of HAI-2 (sHAI-2), extracellular domain Ala28-Lys197 with a C-terminal His8 tag with a Gly spacer (protein, human, not shown: small tags and cut ends)
chain: ADRERSIHDFCLVSKVVGRCRASMPRWWYNVTDGSCQLFVYGGCDGNSNNYLTKEECLKKCATVTENATGDLATSRNAADSSVPSAPRRQDSEDHSSDMFNYEEYCTANAVTGPCRASFPRWYFDVERNSCNNFIYGGCRGNKNSYRSEEACMLRCFRQQENPPLPLGSKHHHHHHHH
Take B1: the IC50, inhibition of hepsin enzymatic activity towards S2366 (amidolytic assay) worked out at 1.3 nM.

B2: sHAI-1B(K401A) (protein, UniProt O43278 36-465, looked up)
chain: GPPPAPPGLPAGADCLNSFTAGVPGFVLDTNASVSNGATFLESPTVRRGWDCVRACCTTQNCNLALVELQPDRGEDAIAACFLINCLYEQNFVCKFAPREGFINYLTREVYRSYRQLRTQGFGGSGIPKAWAGIDLKVQPQEPLVLKDVENTDWRLLRGDTDVRVERKDPNQVELWGLKEGTYLFQLTVTSSDHPEDTANVTVTVLSTKQTEDYCLASNKVGRCRGSFPRWYYDPTEQICKSFVYGGCLGNKNNYLREEECILACRGVQGGPLRGSSGAQATFPQGPSMERRHPVCSGTCQPTQFRCSNGCCIDSFLECDDTPNCPDASDEAACEKYTSGFDELQRIHFPSDKGHCVDLPDTGLCAESIPRWYYNPFSEHCARFTYGGCYGNKNNFEEEQQCLESCRGISKKDVFGLRREIPIPSTGSVE
Consider B2, for which the IC50, inhibition of hepsin enzymatic activity towards S2366 (amidolytic assay) turned out to be 18.2 nM.

B3: sHAI-1B(R260A) (protein, UniProt O43278 36-465, looked up)
chain: B2 chain with R225A, A366K
In turn, B3 yielded an IC50, inhibition of hepsin enzymatic activity towards S2366 (amidolytic assay) above 1000 nM; an activity in amidolytic assays as percent of wildtype and KD2 mutant below 1%; a fold reduction of inhibitory activity against wildtype sHAI-1B (amidolytic assay) above 47 fold.
